Assay results taken from US5919901, “Neuropeptide Y receptor Y5 and nucleic acid sequences” (Bayer Corporation, dated 1999).
Each block holds one binder with its values, some of them ahead of it. Ends that are not written are not given here.

Tests used:
[1] = biological target: T1, rat NPY Y5 receptor, clone Y217.24.13.6B (rat); assay: competition with [125I]PYY, membranes of transfected COS-7 cells
T1 chain: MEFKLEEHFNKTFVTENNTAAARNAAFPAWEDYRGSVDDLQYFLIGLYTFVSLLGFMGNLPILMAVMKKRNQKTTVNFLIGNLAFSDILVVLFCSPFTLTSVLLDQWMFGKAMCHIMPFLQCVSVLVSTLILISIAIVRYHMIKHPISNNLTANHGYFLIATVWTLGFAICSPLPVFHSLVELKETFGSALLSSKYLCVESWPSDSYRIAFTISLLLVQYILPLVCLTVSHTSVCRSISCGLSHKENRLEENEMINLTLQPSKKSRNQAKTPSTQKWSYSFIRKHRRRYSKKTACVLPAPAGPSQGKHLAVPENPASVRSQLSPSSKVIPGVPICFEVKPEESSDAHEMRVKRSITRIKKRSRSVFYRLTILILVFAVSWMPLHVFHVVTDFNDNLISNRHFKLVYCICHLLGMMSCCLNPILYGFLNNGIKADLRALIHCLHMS
Description: (§1) All other peptides were purchased from either Peninsula (Belmont, Calif.) or Bachem (Torrance, Calif.).

[2] = biological target: T2, rat NPY Y5 receptor, clone Y861 (rat); assay: as above
T2 chain: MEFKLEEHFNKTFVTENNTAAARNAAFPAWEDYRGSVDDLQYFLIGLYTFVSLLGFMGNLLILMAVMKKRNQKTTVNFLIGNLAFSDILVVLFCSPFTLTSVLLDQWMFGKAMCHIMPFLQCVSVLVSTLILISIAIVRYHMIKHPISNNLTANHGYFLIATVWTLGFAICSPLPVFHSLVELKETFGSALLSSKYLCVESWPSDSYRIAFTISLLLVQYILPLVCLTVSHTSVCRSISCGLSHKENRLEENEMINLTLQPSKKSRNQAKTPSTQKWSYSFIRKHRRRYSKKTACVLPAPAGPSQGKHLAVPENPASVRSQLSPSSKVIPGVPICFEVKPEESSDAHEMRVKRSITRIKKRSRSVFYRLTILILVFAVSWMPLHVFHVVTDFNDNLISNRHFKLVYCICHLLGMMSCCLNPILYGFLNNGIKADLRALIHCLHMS
Description: as §1

[3] = biological target: T3, rat NPY Y5 receptor, clone Y555 (rat); assay: competition with [125I]PYY, membranes of transfected COS-7 cells; average of two experiments
T3 chain: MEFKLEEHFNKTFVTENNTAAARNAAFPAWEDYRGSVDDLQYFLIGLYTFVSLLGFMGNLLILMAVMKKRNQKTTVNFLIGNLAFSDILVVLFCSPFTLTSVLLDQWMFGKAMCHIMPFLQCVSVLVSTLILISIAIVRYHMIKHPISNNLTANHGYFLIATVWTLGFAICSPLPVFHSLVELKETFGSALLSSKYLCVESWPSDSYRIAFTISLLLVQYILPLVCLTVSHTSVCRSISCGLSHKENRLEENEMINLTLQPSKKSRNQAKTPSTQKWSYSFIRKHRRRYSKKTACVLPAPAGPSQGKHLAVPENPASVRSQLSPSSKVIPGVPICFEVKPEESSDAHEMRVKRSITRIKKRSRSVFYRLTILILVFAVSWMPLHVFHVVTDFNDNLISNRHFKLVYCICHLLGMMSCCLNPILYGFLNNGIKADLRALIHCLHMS
Description: as §1

[4] = biological target: T3, rat NPY Y5 receptor, clone Y555; assay: competition with [125I]PYY, membranes of transfected COS-7 cells; first individual value in brackets
Description: as §1

[5] = biological target: T3, rat NPY Y5 receptor, clone Y555; assay: competition with [125I]PYY, membranes of transfected COS-7 cells; second individual value in brackets
Description: as §1

[6] = biological target: T1, rat NPY Y5 receptor, clone Y217.24.13.6B; assay: competition with [125I]PYY, membranes of transfected COS-7 cells; first individual value in brackets
Description: as §1

[7] = biological target: T1, rat NPY Y5 receptor, clone Y217.24.13.6B; assay: competition with [125I]PYY, membranes of transfected COS-7 cells; second individual value in brackets
Description: as §1

IC50 [1]: 0.0132 µM
IC50 [2]: 0.073 µM
IC50 [3]: 0.032 µM
IC50 [4]: 0.0096 µM
IC50 [5]: 0.054 µM
Binder: SPEELSRYYASLRHYLNLVTRQRY [r(13-36)PYY]

IC50 [2]: 0.325 µM
Binder: APLEPMYPGDYATHEQRAQYETQLRRYINTLTRPRY [rPP]

IC50 [6]: 0.387 µM
IC50 [7]: 0.332 µM
Binder: YYSALRHYINLITRQRY (ends and bridges not checked) [r/h(20-36)NPY]

IC50 [6]: 0.147 µM
IC50 [7]: 0.107 µM
Binder: ARYYSALRHYINLITRQRY (ends and bridges not checked) [p(18-36)NPY]

IC50 [1]: > 1 µM
Binder: HYINLITRQRY (ends and bridges not checked) [r/h(26-36)NPY]

IC50 [1]: > 1 µM
Binder: SALRHYINLITRQRY (ends and bridges not checked) [r/h(22-36)NPY]

IC50 [2]: 0.0049 µM
Binder: APLEPVYPGDNATPEQMAQYAADLRRYINMLTRPRY [hPP]
